Literature values in patent publication US6844322B2, “Method for induced lactation” (Monsanto Technology LLC, priority 2000, dated 2005).

Test system: cows
Conditions: somatotropin included in the induction protocol (Kensinger et al., 1998)

B1: POSILAC® somatotropin: Sustained-release bovine somatotropin, Monsanto (protein, UniProt P01246 27-217, looked up)
Somatotropin: AFPAMSLSGLFANAVLRAQHLHQLAADTFKEFERTYIPEGQRYSIQNTQVAFCFSETIPAPTGKNEAQQKSDLELLRISLLLIQSWLGPLQFLSRVFTNSLVFGTSDRVYEKLKDLEEGILALMRELEDGTPRAGQILKQTYDKFDTNMRSDDALLKNYGLLSCFRKDLHKTETYLRVMKCRRFGEASCAF
modifications: sustained-release formulation
notes: Sustained-release bovine somatotropin, Monsanto
increase in milk yield compared to cows treated with steroids alone: 17%
